The values below come from article PMC9486944, “Structurally Informed Mutagenesis of a Stereochemically Promiscuous Aldolase Produces Mutants That Catalyze the Diastereoselective Syntheses of All Four Stereoisomers of 3-Deoxy-hexulosonic Acid” (ACS Catalysis, 2022).

Residue numbers refer to the chain shown, from its start. Numbers in names are those of the source.

The target in data set [1] is T1, SsKDG-aldolase (Saccharolobus solfataricus, UniProt O54288, T157V/A198L).
T1 construct: full length, pET-3a in E. coli BL21 (DE3); heat treatment, anion exchange, gel filtration; no tag mentioned; 293 C-alpha positions; tetramer
Put plainly: X-ray crystal structure. The class given is binding. Particulars: Variant 3; 2 min soak in 30 mM ligand; active site, covalent (Lys155 Schiff base). The source says: X-ray crystal structure on SsKDG-aldolase | which enabled us to determine the structure of the […] complex

In data set [2] the target is SsKDG-aldolase Variant 2 (T157V/D181Q/A198L) (Sulfolobus solfataricus). Put plainly: crystal structure; hanging-drop vapor diffusion at 18 °C; 11–15% PEG4K, 4–12% isopropanol, 0.1 M HEPES pH 5.9–6.8; unsoaked crystals, crystals soaked in 30 mM 3-deoxy-hexulosonic acid, Variant 2 also cocrystallized with 100 mM pyruvate.
Substrate in data set [3]: O=C[C@@H](O)CO
Put plainly: purified protein. Particulars: 50 mM sodium phosphate pH 6.0, 70 °C.

Substrate in data set [4]: O=C[C@H](O)CO
Put plainly: purified protein. Particulars: 50 mM sodium phosphate pH 6.0, 70 °C.

Substrate in data set [5]: CC(=O)C(=O)O
Put plainly: thiobarbituric acid assay of aldol product. Particulars: 50 mM sodium phosphate pH 6.0, 70 °C. The format is biochemical, Saccharolobus solfataricus.

Where [6] appears, read: Variant 3, near-saturating pyruvate.
[7] abbreviates: Variant 3, near-saturating D-glyceraldehyde.
Setting [8] is: Variant 4, near-saturating pyruvate.
Setting [9] is: Variant 4, near-saturating D-glyceraldehyde.

With `O=C(O)C(=O)C[C@@H](O)[C@@H](O)CO` [L-KDGlc], the X-ray crystal structure entry in data set [1] is given as “which enabled us to determine the structure of the L-KDGlc complex”.
Consider “SsKDG-aldolase Variant 2 (T157V/D181Q/A198L) (enzyme)”, for which the stoichiometry N – broadly, a count of units in the complex or per binding partner – in data set [2] worked out at 4.

B1: SsKDG-aldolase (Saccharolobus solfataricus; A198L/T157V) (protein)
chain: PEIITPIITPFTKDNRIDKEKLKIHAENLIRKGIDKLFVNGTTGLGPSLSPEEKLENLKAVYDVTNKIIFQVGGLNLDDAIRLAKLSKDFDIVGIASYAPYYYPRMSEKHLVKYFKTLCEVSPHPVYLYNYPTATGKDIDAKVAKEIGCFTGVKDVIENIIHTLDYKRLNPNMLVYSGSDMLIATVASTGLDGNVALGSNYLPEVTVTIKKLAMERKIDEALKLQFLHDEVIEASRIFGSLSSNYVLTKYFQGYDLGYPRPPIFPLDDEEERQLIKKVEGIRAKLVELKILKE
notes: full length, pET-3a in E. coli BL21 (DE3); heat treatment, anion exchange, gel filtration; no tag mentioned; 293 C-alpha positions; tetramer
As to B1, the figures for the Km in data set [3] (setting [6]), in data set [4] (setting [6]) and in data set [5] (setting [7]) were 37.6 (±0.2) mM, 19.5 (±0.2) mM and 2.9 (±0.1) mM, respectively. For the same molecule, the Vmax (usually the rate approached at saturating substrate) in data set [3] (setting [6]) was 6.1 µmol/min/mg; in data set [4] (setting [6]), 1.8 µmol/min/mg; in data set [5] (setting [7]), 1.7 µmol/min/mg.

B2: SsKDG-aldolase (Saccharolobus solfataricus; A198F/Y103F/Y130F) (protein)
chain: B1 chain with Y102F, Y129F, V156T, L197F
notes: as for B1
On to B2, for which the results for the Km in data set [3] (setting [8]), in data set [4] (setting [8]) and in data set [5] (setting [9]) were 6.3 (±0.18) mM, 6.9 (±0.2) mM and 0.3 (±0.04) mM, respectively. Besides, the maximum rate (Vmax) is 0.06 µmol/min/mg in data set [3] (setting [8]), 0.11 µmol/min/mg in data set [4] (setting [8]) and 0.09 µmol/min/mg in data set [5] (setting [9]).
